Measurements reported in article PMC6429962 (Cell reports, 2019).
Each block holds one binder with its values, some of them ahead of it.

Target: T1, myc-tagged xFZD8 CRD (cysteine-rich domain of Xenopus Frizzled-8) (Xenopus, UniProt O93274 24-144)
T1 sequence (looked up): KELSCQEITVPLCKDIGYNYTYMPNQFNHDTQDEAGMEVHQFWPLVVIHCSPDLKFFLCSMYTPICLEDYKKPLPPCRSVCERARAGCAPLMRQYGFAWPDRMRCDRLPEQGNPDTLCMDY
Assay: co-IP

fold more efficient co-immunoprecipitation than xWnt8^S187A: ~10 fold
B1: wild-type Xenopus Wnt8 (xWnt8^WT) (ligand, UniProt P28026 23-358, looked up)
chain: AWSVNNFLMTGPKAYLTYSASVAVGAQNGIEECKYQFAWERWNCPESTLQLATHNGLRSATRETSFVHAISSAGVMYTLTRNCSMGDFDNCGCDDSRNGRIGGRGWVWGGCSDNAEFGERISKLFVDGLETGQDARALMNLHNNEAGRLAVKETMKRTCKCHGISGSCSIQTCWLQLAEFRDIGNHLKIKHDQALKLEMDKRKMRSGNSADNRGAIADAFSSVAGSELIFLEDSPDYCLKNISLGLQGTEGRECLQSGKNLSQWERRSCKRLCTDCGLRVEEKKTEIISSCNCKFHWCCTVKCEQCKQVVIKHFCARRERDSNMLNTKRKNRGHRR
modifications: acylation site S187 (palmitoleoyl chain), as the paper says of the wild type

fold reduction of apparent CRD binding strength against the wild type: ~10 fold
B2: human Wnt3a lacking the acylation site (hWnt3a^S209A) (ligand, UniProt P56704 19-352, looked up)
chain: SYPIWWSLAVGPQYSSLGSQPILCASIPGLVPKQLRFCRNYVEIMPSVAEGIKIGIQECQHQFRGRRWNCTTVHDSLAIFGPVLDKATRESAFVHAIASAGVAFAVTRSCAEGTAAICGCSSRHQGSPGKGWKWGGCSEDIEFGGMVSREFADARENRPDARSAMNRHNNEAGRQAIASHMHLKCKCHGLAGSCEVKTCWWSQPDFRAIGDFLKDKYDSASEMVVEKHRESRGWVETLRPRYTYFKVPTERDLVYYEASPNFCEPNPETGSFGTRDRTCNVSSHGIDGCDLLCCGRGHNARAERRREKCRCVFHWCCYVSCQECTRVYDVHTCK
